The values below come from PMC5363614, “Secreted protein acidic and rich in cysteine (SPARC) induces lipotoxicity in neuroblastoma by regulating transport of albumin complexed with fatty acids” (Oncotarget, 2016).

The assay addresses T1, Bovine serum albumin (bovine, UniProt P02769 25-607).
T1 construct: Serum albumin, bovine (BSA); Unlabelled BSA used as analyte in SPR; also called BSA; source: bought: Sigma-Aldrich
The experiment in a line: SPR; BIAcore 3000; histidine-tagged SPARC immobilised on Sensor NTA chip to about 100 RU; BSA as analyte, room temperature, 20 ul/minute, 5 minutes association, 5 minutes dissociation; global Langmuir fitting. Conditions: both partners purified. On the technique in general: Surface plasmon resonance follows binding to a sensor surface in real time, without labels.

The Kd is a measure of binding affinity in units of concentration.

T1 sequence (P02769 25-607): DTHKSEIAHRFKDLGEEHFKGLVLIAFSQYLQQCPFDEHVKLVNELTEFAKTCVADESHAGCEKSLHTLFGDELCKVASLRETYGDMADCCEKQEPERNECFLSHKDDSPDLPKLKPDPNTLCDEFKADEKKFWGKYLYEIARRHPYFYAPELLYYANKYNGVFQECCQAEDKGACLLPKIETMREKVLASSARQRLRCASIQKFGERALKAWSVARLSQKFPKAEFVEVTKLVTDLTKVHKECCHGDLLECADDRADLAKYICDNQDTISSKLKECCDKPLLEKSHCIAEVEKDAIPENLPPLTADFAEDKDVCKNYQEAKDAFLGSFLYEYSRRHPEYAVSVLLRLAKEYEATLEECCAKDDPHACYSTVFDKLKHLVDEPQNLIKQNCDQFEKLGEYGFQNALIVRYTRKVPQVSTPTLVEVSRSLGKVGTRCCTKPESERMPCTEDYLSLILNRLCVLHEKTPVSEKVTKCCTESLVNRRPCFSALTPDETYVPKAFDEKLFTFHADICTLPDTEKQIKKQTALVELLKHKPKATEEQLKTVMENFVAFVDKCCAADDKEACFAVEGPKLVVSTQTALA

B1: Recombinant human SPARC (secreted protein acidic and rich in cysteine), histidine-tagged (natural protein, UniProt P09486 18-303, looked up)
chain: APQQEALPDETEVVEETVAEVTEVSVGANPVQVEVGEFDDGAEETEEEVVAENPCQNHHCKHGKVCELDENNTPMCVCQDPTSCPAPIGEFEKVCSNDNKTFDSSCHFFATKCTLEGTKKGHKLHLDYIGPCKYIPPCLDSELTEFPLRMRDWLKNVLVTLYERDEDNNLLTEKQKLRVKKIHENEKRLEAGDHPVELLARDFEKNYNMYIFPVHWQFGQLDQHPIDGYLSHTELAPLRAPLIPMEHCTTRFFETCDLDNDKYIALDEWAGCFGIKQKDIDKDLVI
notes: Secreted protein acidic and rich in cysteine (SPARC), human, recombinant; The histidine tag is named for the SPR experiment; also called rhSPARC; histidine-tagged recombinant SPARC; source: HEK293 cells transfected with SPARC, serum-free conditioned media; purified as described [25]
Molecule B1 showed a dissociation constant (Kd) of 18.9 µM.
